The numbers were not newly measured in publication PMC2663039, which cites them from elsewhere.

Several values for one entry are separate records, joined by “and”; a condition that tells them apart may be missing. Equal entries are not always repeated.

In data set [1] the target is NRP1 (Homo sapiens) (UniProt O14786). The data set can be described thus: SPR. (Surface plasmon resonance follows binding to a sensor surface in real time, without labels.)
For data set [2] the target is unchanged. The data set can be described thus: cell-based Scatchard.
Data set [3] has the same target. The data set can be described thus: SPR (BIAcore).
A further data set concerns the target VEGFR1 (Homo sapiens) (UniProt P17948).
The target in another data set is VEGFR2 (Homo sapiens) (UniProt P35968).
Data set [4] has as its target sVEGFR1 (sFlt-1, HUVEC-derived) soluble isoform (Homo sapiens) (UniProt P17948).
Data set [5] concerns the target sFlt-1 (baculovirus-expressed) soluble form (Homo sapiens) (UniProt P17948).
The target of data set [6] is sFlt-1 (HUVEC-derived) soluble form (Homo sapiens) (UniProt P17948).
In data set [7] the target is sVEGFR1 (sFlt-1, baculovirus-expressed) soluble isoform (Homo sapiens) (UniProt P17948).

Chain of UniProt P35968 (P35968 20-1356): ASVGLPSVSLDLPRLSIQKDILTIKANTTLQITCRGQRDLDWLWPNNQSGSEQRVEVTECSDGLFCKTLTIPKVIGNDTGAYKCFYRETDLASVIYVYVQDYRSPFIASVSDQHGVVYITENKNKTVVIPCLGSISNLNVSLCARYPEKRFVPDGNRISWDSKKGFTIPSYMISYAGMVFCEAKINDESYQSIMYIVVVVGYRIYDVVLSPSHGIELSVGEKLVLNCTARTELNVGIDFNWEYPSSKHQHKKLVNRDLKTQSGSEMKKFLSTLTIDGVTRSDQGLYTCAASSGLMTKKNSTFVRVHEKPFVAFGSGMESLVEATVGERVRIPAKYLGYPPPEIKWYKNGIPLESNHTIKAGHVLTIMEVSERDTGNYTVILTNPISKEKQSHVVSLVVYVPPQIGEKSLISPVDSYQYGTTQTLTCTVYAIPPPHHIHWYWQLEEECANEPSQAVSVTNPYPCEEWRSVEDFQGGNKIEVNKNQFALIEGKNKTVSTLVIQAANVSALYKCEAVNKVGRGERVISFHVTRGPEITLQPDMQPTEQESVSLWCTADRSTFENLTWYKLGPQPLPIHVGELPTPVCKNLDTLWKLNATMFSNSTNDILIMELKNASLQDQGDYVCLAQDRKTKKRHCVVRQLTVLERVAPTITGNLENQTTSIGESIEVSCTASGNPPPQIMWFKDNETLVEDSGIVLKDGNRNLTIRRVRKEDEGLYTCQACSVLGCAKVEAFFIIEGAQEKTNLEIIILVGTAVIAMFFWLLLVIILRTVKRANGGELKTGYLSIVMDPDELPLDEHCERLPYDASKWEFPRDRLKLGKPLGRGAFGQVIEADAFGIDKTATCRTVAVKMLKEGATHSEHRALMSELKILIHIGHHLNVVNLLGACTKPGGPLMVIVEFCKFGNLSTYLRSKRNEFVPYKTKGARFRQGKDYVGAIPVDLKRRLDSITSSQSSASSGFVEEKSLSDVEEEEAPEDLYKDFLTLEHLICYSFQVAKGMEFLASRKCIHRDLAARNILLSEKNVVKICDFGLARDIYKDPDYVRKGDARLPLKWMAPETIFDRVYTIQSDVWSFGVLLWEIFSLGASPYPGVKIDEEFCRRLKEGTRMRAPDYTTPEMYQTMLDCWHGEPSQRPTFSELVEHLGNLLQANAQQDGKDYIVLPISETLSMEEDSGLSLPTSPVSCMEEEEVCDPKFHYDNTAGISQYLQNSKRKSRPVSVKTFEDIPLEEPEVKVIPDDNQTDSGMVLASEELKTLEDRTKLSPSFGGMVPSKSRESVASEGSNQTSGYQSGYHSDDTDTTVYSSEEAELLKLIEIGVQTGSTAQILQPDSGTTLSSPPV

A word on the Kd: it is the equilibrium constant for the complex coming apart. Take Flt-1 ECD (from UniProt P17948): the Kd with NRP1 (Homo sapiens) [1] was 1.8 nM.

In the case of VEGF121 VEGF121 (from UniProt P15692), the Kd with NRP1 (Homo sapiens) [1] is 220 nM.

In the case of VEGF165 VEGF165 (from UniProt P15692), in the data set with NRP1 (Homo sapiens) [1], the Kd is 120 nM.

Regarding “VEGF165 VEGF165 isoform (from UniProt P15692)”, the Kd with NRP1 (Homo sapiens) [2] was 0.2 nM and 0.32 nM; with NRP1 (Homo sapiens) [3] it was 25 nM.

Regarding VEGF (from UniProt P15692), the Kd in the data set with VEGFR1 (Homo sapiens) was 0.0333 nM; with VEGFR2 (Homo sapiens), 0.1 nM; in [4], 0.01 nM; in [5] it was 0.02 nM; in data set [6], 0.01 nM; in data set [7], 0.02 nM.
